For data set [1], the target named is T1, New Delhi metallo-β-lactamase-1 (NDM-1) (Klebsiella pneumoniae, UniProt C7C422).
T1 construct: gene blaNDM-1
Briefly: steady-state hydrolysis kinetics with purified NDM-1 (Km). Type of data set: biochemical.

Data set [2] addresses T1, New Delhi metallo-β-lactamase-1 (NDM-1). Briefly: biochemical.
In data set [3] the test system is C[C@@H](O)[C@H]1C(=O)N2C(C(=O)O)=C(S[C@@H]3CN[C@H](C(=O)N(C)C)C3)[C@H](C)[C@H]12. Nature of the data set: steady-state hydrolysis kinetics with purified NDM-1 (Km). Type of data set: biochemical, Klebsiella pneumoniae. The conditions noted are these: Zn2+ (two Zn ions).
The subject of data set [4] is CO/N=C(\C(=O)N[C@@H]1C(=O)N2C(C(=O)O)=C(COC(C)=O)CS[C@H]12)c1csc(N)n1. The data set is described as above. The class given is biochemical, Klebsiella pneumoniae. The conditions noted are these: Zn2+ (two Zn ions).
In data set [5] the test system is C[C@@H](O)[C@H]1C(=O)N2C(C(=O)O)=C(SCCN=CN)C[C@H]12. The data set is described as above. The class given is biochemical, Klebsiella pneumoniae. The conditions noted are these: Zn2+ (two Zn ions).
For data set [6], the system named is CC1(C)S[C@@H]2[C@H](NC(=O)[C@H](N)c3ccccc3)C(=O)N2[C@H]1C(=O)O. Described as above. The class given is biochemical, Klebsiella pneumoniae. The conditions noted are these: Zn2+ (two Zn ions).

T1 sequence (C7C422 29-270 limits assumed): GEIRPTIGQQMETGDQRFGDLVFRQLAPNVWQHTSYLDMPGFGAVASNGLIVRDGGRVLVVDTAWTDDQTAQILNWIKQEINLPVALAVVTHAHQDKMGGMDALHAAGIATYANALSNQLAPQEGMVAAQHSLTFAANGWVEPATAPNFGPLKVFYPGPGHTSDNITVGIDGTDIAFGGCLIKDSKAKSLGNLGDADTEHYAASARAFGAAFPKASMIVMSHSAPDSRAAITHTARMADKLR

On to `O=C(Cc1cccs1)N[C@@H]1C(=O)N2C(C(=O)O)=C(/C=C/c3ccc([N+](=O)[O-])cc3[N+](=O)[O-])CS[C@H]12` [nitrocefin], for which, in data set [1], the Km (commonly the concentration of substrate that gives half-maximal velocity) amounted to 23.2 ± 1.7 µM.
With `O=P(O)(O)C(O)(Cc1cccnc1)P(=O)(O)O` [risedronate], in data set [2], the midpoint of inhibition, the IC50, lay at 24.6 µM.
Regarding “New Delhi metallo-β-lactamase-1 (NDM-1) (Klebsiella pneumoniae)”, in data set [3], the Km turned out to be 52.8 ± 3.4 µM; the maximal velocity (Vmax) (as a rule, the top rate of the reaction or transport when substrate is in excess) came out at 38.6 µM/min; the kcat (usually the number of substrate molecules converted per active site and unit of time at saturation) was 322 ± 11.7 s⁻¹; the kcat/Km (usually the turnover number divided by the Michaelis constant) worked out at 6.1e+06 ± 450000 M⁻¹ s⁻¹. For the same molecule, in data set [4], the Km is 54.8 ± 3.7 µM, the Vmax worked out at 45.1 µM/min, the kcat stood at 375 ± 17.5 s⁻¹ and the kcat/Km was 6.85e+06 ± 560000 M⁻¹ s⁻¹. In data set [5], the Km is 75.9 ± 2.9 µM, the Vmax is 91 µM/min, the kcat came to 758 ± 18.6 s⁻¹ and the kcat/Km is 9.99e+06 ± 450000 M⁻¹ s⁻¹. In addition, in data set [6], the Km came to 96.5 ± 3.1 µM, the Vmax was determined as 44.9 µM/min, the kcat was 375 ± 14.3 s⁻¹ and the kcat/Km is 3.88e+06 ± 190000 M⁻¹ s⁻¹.
